According to IntAct's records for PubMed 23598340:

B1: Ktr system potassium uptake protein B (Bacillus subtilis), O32081 (parent)
chain: MTLQKDKVIKWVRFTPPQVLAIGFFLTIIIGAVLLMLPISTTKPLSWIDALFTAASATTVTGLAVVDTGTQFTVFGQTVIMGLIQIGGLGFMTFAVLIVMILGKKIGLKERMLVQEALNQPTIGGVIGLVKVLFLFSISIELIAALILSIRLVPQYGWSSGLFASLFHAISAFNNAGFSLWPDNLMSYVGDPTVNLVITFLFITGGIGFTVLFDVMKNRRFKTFSLHTKLMLTGTLMLNAIAMLTVFILEYSNPGTLGHLHIVDKLWASYFQAVTPRTAGFNSLDFGSMREGTIVFTLLLMFIGAGSASTASGIKLTTFIVILTSVIAYLRGKKETVIFRRSIKYPIIIKALAVSVTSLFIVFLGIFALTITEQAPFLQIVFETFSAFGTVGLTMGLTPELTTAGKCIIIVIMFIGRIGPLTFVFSFAKTEQSNIRYPDGEVFTG
partner: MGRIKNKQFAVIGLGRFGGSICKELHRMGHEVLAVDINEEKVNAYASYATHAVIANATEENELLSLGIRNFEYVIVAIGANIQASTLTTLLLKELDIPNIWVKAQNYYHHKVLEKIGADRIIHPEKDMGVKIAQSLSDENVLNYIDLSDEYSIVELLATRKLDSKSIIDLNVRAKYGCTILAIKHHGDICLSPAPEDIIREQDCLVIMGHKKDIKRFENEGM

Variants of: B1
Conditions: with ktra_bacsu ktrA

| Variant | effect of a mutation on the interaction |
| --- | --- |
| MTLQKDKVIKWVRFTPPQVLAIGFFLTIIIGAVLLMLPISTTKPLSWIDALFTAASATTVTGLAVVDTGTQFTVFGQTVIMGLIQIGGLGFMTFAVLIVMILGKKIGAKERMLVQEALNQPTIGGVIGLVKVLFLFSISIELIAALILSIRLVPQYGWSSGLFASLFHAISAFNNAGFSLWPDNLMSYVGDPTVNLVITFLFITGGIGFTVLFDVMKNRRFKTFSLHTKLMLTGTLMLNAIAMLTVFILEYSNPGTLGHLHIVDKLWASYFQAVTPRTAGFNSLDFGSMREGTIVFTLLLMFIGAGSASTASGIKLTTFIVILTSVIAYLRGKKETVIFRRSIKYPIIIKALAVSVTSLFIVFLGIFALTITEQAPFLQIVFETFSAFGTVGLTMGLTPELTTAGKCIIIVIMFIGRIGPLTFVFSFAKTEQSNIRYPDGEVFTG [L108A] | decreasing interaction strength |
